Experimental findings from patent publication US20190060239A1, “Technology for the Preparation of Microparticles” (Ansun Biopharma, Inc., priority 2007, published 2019) are described below.

This data set can be described thus: Microsphere formation, size and appearance by light microscopy. Format: physicochemical. As for the experimental part: 4) DAS181+5 mM sodium citrate, pH 5.0+10% isopropanol; • Plastic microcentrifuge tubes containing the cocktails with ingredients as described in 1)-4) above were gradually cooled from: • (a) ambient temperature (about 25° C.) to 4° C. by placing the cocktails in a refrigerator, followed by: • (b) cooling to −20° C. by placing the resulting cocktail from (a) in a freezer, followed by: • (c) freezing to −80° C. by placing the resulting cocktail from b) in a freezer.
Freezing to −80° C. is carried out to remove ingredients from the cocktail other than the microspheres (e.g., solvent, etc.) by freeze-drying. Cocktail 4) was prepared in triplicate, two aliquots in plastic tubes and one in a glass tube. One aliquot (in a plastic tube) was cooled as described above, while the two other aliquots (one in a plastic tube and one in a glass tube) were subjected to snap cooling/freezing by dipping the tubes into liquid nitrogen.
Upon freezing, all tubes were placed into the lyophilizer and the volatiles (water and isopropanol) were removed by sublimation, leaving the dry pellets.
The dry pellets recovered from the cocktails treated as described above, were tested for the presence of microspheres.
(§1) DAS181 was purified and used to prepare microspheres as described above in Example 1 (see cocktail 4)), using a combination of DAS181 protein (10 mg/ml), citrate counterion (sodium citrate, 5 mM) and isopropanol organic solvent (10%, 20% or 30%). The resulting cocktail solutions were cooled from ambient temperature (about 25° C.) to 4° C., followed by cooling to −20° C., followed by freezing to −80° C., as described in Example 1. Upon freezing to −80° C., the tubes are placed in a lyophilizer and the volatiles (water and isopropanol) were removed by sublimation, leaving the dry powder containing microspheres.
as §1, with “protein (5 mg/ml or 10” for “protein (10”, “isopropanol (5%” for “isopropanol organic solvent (10%, 20%”, “or 20%).” for “or 30%).”, “tubes were” for “tubes are”
DAS181 was purified and used to prepare microspheres as described above in Example 1 (see cocktail 4)), using a combination of DAS181 protein (10 mg/ml), citrate counterion (sodium citrate; 2 mM, 3 mM or 6 mM) and isopropanol (20%). The cocktail solutions were mixed in glass vials and cooled from +20° C. to −40° C. at a freeze ramp of 1° C. per minute in a Millrock Lab Series lyophilizer. Volatiles (water and isopropanol) were removed by sublimation at 100 mTorr with primary drying at −30° C. for 12 hours and secondary drying at 30° C. for 3 hours, leaving the dry powder containing microspheres.
To a cocktail solution containing 5 mg/ml DAS181, 5 mM sodium citrate, and 20% isopropanol, was added a surfactant (3.5% w/w lecithin, 0.7% w/w Span-85® (sorbitan trioleate), or 3.5% w/w oleic acid).

B1: DAS181: fusion protein: heparin (GAG) binding domain of human amphiregulin fused to a catalytic domain of Actinomyces Viscosus sialidase (SEQ ID NO:17) (protein)
chain: MGDHPQATPAPAPDASTELPASMSQAQHLAANTATDNYRIPAITTAPNGDLLISYDERPKDNGNGGSDAPNPNHIVQRRSTDGGKTWSAPTYIHQGTETGKKVGYSDPSYVVDHQTGTIFNFHVKSYDQGWGGSRGGTDPENRGIIQAEVSTSTDNGWTWTHRTITADITKDKPWTARFAASGQGIQIQHGPHAGRLVQQYTIRTAGGAVQAVSVYSDDHGKTWQAGTPIGTGMDENKVVELSDGSLMLNSRASDGSGFRKVAHSTDGGQTWSEPVSDKNLPDSVDNAQIIRAFPNAAPDDPRAKVLLLSHSPNPRPWSRDRGTISMSCDDGASWTTSKVFHEPFVGYTTIAVQSDGSIGLLSEDAHNGADYGGIWYRNFTMNWLGEQCGQKPAKRKKKGGKNGKNRRNRKKKNP
modifications: DAS181
For B1, the size of microspheres entry is listed as “about 3 microns” (5 mg/ml DAS181, 5 mM sodium citrate, 20% isopropanol); 1 micron (10 mg/ml DAS181, 2 mM citrate, 20% isopropanol, +20°C to −40°C at 1°C per minute); 3 microns (10 mg/ml DAS181, 3 mM citrate, 20% isopropanol, +20°C to −40°C at 1°C per minute); 5-6 microns (10 mg/ml DAS181, 5 mM sodium citrate, 30% isopropanol, gradual cooling); 5 microns (10 mg/ml DAS181, 6 mM citrate, 20% isopropanol, +20°C to −40°C at 1°C per minute). Moreover, the “dispersivity of microspheres formed with surfactant vs without” value (5 mg/ml DAS181, 5 mM sodium citrate, 20% isopropanol + 3.5% w/w lecithin, 0.7% w/w Span-85 or 3.5% w/w oleic acid) is recorded as “improved dispersivity”.
